Results published in publication PMC3469515 (Molecular Biology of the Cell, 2012).

Target: the molecule itself
Assay: AUC

B1: Mid1p construct M1-14 (residues 1–578) (domain or fragment, S. pombe, UniProt P78953 1-578, looked up)
chain: MKEQEFSYREAKDVSLDSKGLENSFLSSPNREKTPLFFEGNSNETSGYDQTKNFTHGDGDMSLGNLSELNVATDLLESLDLRSMYMHGYGHLDSSFSSQHSPDNRKRMSSTSVFKRINSEEEGRIPSLTYSAGTMNSTSSSTASLKGADIVADYETFNPDQNLAELSFDRSKSSRKRAVEVAEFSRAKTMSPLEYTVQHPYQSHNELSTNPARARAGSVPNLARIPSDVKPVPPAHLSASSTVGPRILPSLPKDTTEDNPALERVETTASLDMDYKPLEPLAPIQEAPVEDTSEPFSSVPEATLDDSDISTESLRKKVLAKMEAKRISSGSSYASTLRKVYDFSELSLPTNGKDYDELYLQSSRNSEPEISTIINDSLQQENMDEDISATSIPKSQAAYGHGSVTYHEVPRYNLTSASVGYSISSQRGRIKSSSTIDNLSAILSSEDLRHPSMQPVPGTKRTYSNYCENEPNKSSQSLVSSESHNVEGWNYSETGTVGFYDPSAEISASIDELRQSTPVARDSELLSRAHSFDLNRLDLPSQDKSTSYEVPNGTENQSPRPVTSLGFVNETFFEEKPK
stoichiometry N: > 8
